Measured values from IntAct's records for PubMed 18680311.

Molecular target: sh3k1_human SH3KBP1 (UniProt Q96B97)

- effect of a mutation on the interaction: decreasing interaction
Substance: Polyubiquitin-C (Homo sapiens) (from UniProt P0CG48) K6E
